Measured values reported in the supplement of paper PMC9170038.

Assays:
[1] = test system: MS2 coat protein; experiment: apparent KD of MS2 coat protein, switch ON state; designed switch direction (-1 OFF switch, 1 ON switch): -1; higher = weaker reporter binding; conditions: FMN input: 0 or 200 uM; Eterna round: R93 (includes R88 designs)
Outline: (§1)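 Apparent KD was obtained for each design as the median of normalised binding-curve fits over its clusters. RNA switches transcribed on-chip from Illumina sequencing clusters were titrated with SNAP-549-labelled MS2 coat protein (twofold steps, 0.7 or 1.5 nM to 3 µM) in 100 mM Tris-HCl pH 7.5, 80 mM KCl, 4 mM MgCl2, without or with constant ligand.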

[2] = test system: MS2 coat protein; experiment: apparent KD of MS2 coat protein, switch OFF state (with FMN for OFF switches, without FMN for ON switches); designed switch direction (-1 OFF switch, 1 ON switch): -1; higher = weaker reporter binding; conditions: FMN input: 0 or 200 uM; Eterna round: R93 (includes R88 designs)
Outline: as §1

| Sequence | apparent KD of MS2 coat protein [1] | apparent KD of MS2 coat protein [2] |
| --- | --- | --- |
| AAGGUAUGAGGAUAUACAUAGAUACAGACACAUGUUCAAGUACAUGAGGAUCACCCAUGUAGAAGGCAUAUAUA [AJ 14] | 0.0242 µM | 0.033 µM |
| AAGUAUCGAGGAUAUACAUAGAUACAGAUUCAUGUAGAACUACAUGAGGAUCACCCAUGUAGAAGGCGAUAAUA [AJ 33] | 0.0318 µM | 0.0793 µM |
| AAUAAACAUGAGGAUCACCCAUGUAAGGAUAUGCGAACAAUAAGAAGACAAUAAUAAAGCAGAAGGUACAAGAG [Ex1 sub 1] | 0.027 µM | 0.05 µM |
| AAUAAACAUGAGGAUCACCCAUGUCAGGAUAUGCACAAACAAACAAACAAACAAGCUAGCAGAAGGGACACUAC [Amethyst 87] | 0.0231 µM | 0.031 µM |
| AAUAACAGAGGAUAUACUAAAGAAAUGAAAAGAAAUAAAGAACAUGAGGAUCACCCAUGUAGAAGGCUGAAUAA [Sheneh] | 0.0169 µM | 0.0215 µM |
| AAUAAGUCAGGAUAUACUAUGUCAGGAGAGAGACUGACUAUGUAGAAGGGACAUGAGGAUCACCCAUGUAAUAA [JR_Exclusion4_Sub5] | 0.0474 µM | 0.0361 µM |
| AAUAAGUGAGGAUAUACGAAAUAAAUAAAUAAAUAAAUAAAGUAGAAGGCACAUGAGGAUCACCCAUGUAAUAA [My Mind Is Going Dave] | 0.0344 µM | 0.0297 µM |
| AAUAAGUGAGGAUAUGCAAAUAAUAAAUAAAAUAAAAUAAAGCAGAAGGCACAUGAGGAUCACCCAUGUAAAUA [JR_Exc004_Sub001] | 0.034 µM | 0.0295 µM |
| AAUAAGUGAGGAUAUGGAAAUAAUAAAUAAAAUACCCUAAACCAGAAGGCACAUGAGGAUCACCCAUGUAAAUA [JR_Exc004_Sub003] | 0.0341 µM | 0.028 µM |
| AAUGCGGCAGGAUAUACAUGAGGAUCACCCAUGUAGAUCAGAUAUAUGGGAAAGCCAUGUAGAAGGGCCGCAAA [Ex 3May 61] | 0.0946 µM | 0.0248 µM |
| AAUUCACAUGAGGAUCACCCAUGUAAGGAUAUCGAAAUAAAACUAAUCAAAAAACAAACGAGAAGGUACAAAAA [Exclusion 1 design 7] | 0.0236 µM | 0.0263 µM |
| ACCAGACAUGAGGAUCACCCAUGUCAGGAUAUCUAGAAAACCUCAUGUAAAAAAAUCUAGAGAAGGGAUAUGGA [Design 94: Pseudoknot D] | 0.0406 µM | 0.0547 µM |
| ACCAGUACAGGAUAUACAUGAGGAUCACCCAUGUGAGAAUUAAGUGGCGUACCACAAAGUAGAAGGGUACUGGA [Mat - Exclusion 3 - JL mod - D11] | 0.0433 µM | 0.273 µM |
| ACCCUGCUAGGAUAUACAGCAGGGAUUCGAAAACCCACGAAACAUGAGGAUCACCCAUGUAGAAGGAGUAGGGA [Bimaat] | 0.0175 µM | 0.016 µM |
| ACCGAACAUGAGGAUCACCCAUGUGAGGAUAUAGACGCAAAUUAAACGCGUAACAAAACUAGAAGGCACUGGGC [Veais] | 0.0276 µM | 0.0153 µM |
| ACUUAGACAGGAUAUACGUGAGUGGAAAAAGUGUAUCCACUACAUGAGGAUCACCCAUGUAGAAGGGUCUAAGA [Ex2 Design 182: Random 7] | 0.0186 µM | 0.0197 µM |
| AGAAAACAUGAGGAUCACCCAUGUCAGGAUAUCUAAAAGAAAAGAAAAGAAAGAAGAAAGAGAAGGGACAAGAA [Sekhemib-Perenmaat] | 0.0221 µM | 0.0255 µM |
| AGAAAGGCAGGAUAUACAUGAGGAUCACCCAUGUUAAGAGUGACGGAAACGUCACGAAGUAGAAGGGCCAAGAA [The song I sing] | 0.0204 µM | 0.0173 µM |
| AGAGACAGAGGAUAUACAUGAGGAUCACCCAUGUAAGAGAAAGAAAAGGGAAAGAAAAGUAGAAGGCUGAGAGA [Ruby 67] | 0.0242 µM | 0.0287 µM |
| AGCAAACAUGAGGAUCACCCAUGUCAGGAUAUGAACGAAAUAAAAUAAAAAUAAAAGUUCAGAAGGGACGAGCA [Mat - Exclusion 1 - Eli mod - D24] | 0.0323 µM | 0.0435 µM |
| AGCAAGUCAGGAUAUGCGAAGUCAGGACACACACUGACGAAGCAGAAGGGACAUGAGGAUCACCCAUGUAAGCA [JR_Exclusion4_Sub6] | 0.0425 µM | 0.0393 µM |
| AGCAGGUGAGGAUAUCGAUUAAGAUUAACAUUAUUAUUAAACGAGAAGGCACAUGAGGAUCACCCAUGUAAGGA [Exclusion 4Col] | 0.0434 µM | 0.0518 µM |
| AGCUAGUCAGGAUAUACGAACAUGUCAAAAGACGUGAAGGAACAUGAGGAUCACCCAUGUAGAAGGGACUAGCA [Diamond 19] | 0.0193 µM | 0.0165 µM |

| Sequence | apparent KD of MS2 coat protein [1] | apparent KD of MS2 coat protein [2] |
| --- | --- | --- |
| AGCUAGUCAGGAUAUACGAACAUGUCAAAAGACGUGAAGGGACAUGAGGAUCACCCAUGUAGAAGGGACUAGCC [salish99-Ex2-17] | 0.0332 µM | 0.145 µM |
| AGCUAGUCAGGAUAUACGAACAUGUCGAGAGACGUGAAGGGACAUGAGGAUCACCCAUGUAGAAGGGACUAGCA [Mat - Exclusion 2 - JL mod - D2] | 0.0355 µM | 0.17 µM |
| AGCUAGUCAGGAUAUACGAACAUGUCGCCAGAUGUGAAGGGACAUGAGGAUCACCCAUGUAGAAGGGACUAGCA [salish99-Ex2-23] | 0.254 µM | 0.198 µM |
| AGCUAGUCAGGAUAUACGAACAUGUCGGAAGACGUGAAGGGACAUGAGGAUCACCCAUGUAGAAGGGACUAGCA [Mat - Exclusion 2 - JL mod - D3] | 0.0331 µM | 0.136 µM |
| AGCUAGUCAGGAUAUACGAACAUGUCGGUGGACGUGAAGGGACAUGAGGAUCACCCAUGUAGAAGGGACUAGCA [salish99-Ex2-21] | 0.0413 µM | 0.0915 µM |
| AGCUAGUCAGGAUAUACGAGCAUGUCAAAAGACGUGAAGGGACAUGAGGAUCACCCAUGUAGAAGGGACUAGCA [Diamond 22] | 0.0403 µM | 0.122 µM |
| AGCUAGUCAGGAUAUGCAUGAAAAAAAAAAAAAAAAAAAAAACAUGAGGAUCACCCAUGUAGAAGGGACUAGCA [Starry Exclusion 2 (jandersonlee round 1 mod)] | 0.126 µM | 0.212 µM |
| AGCUAGUGAGGAUAUACGAACAAGUAAAAGGACUGUAAGGGACAUGAGGAUCACCCAUGUAGAAGGCACUAGCA [Diamond 60] | 0.0296 µM | 0.0927 µM |
| AGGAAACAUGAGGAUCACCCAUGUAAGGAUAUGAACGAAAUAAAAUAAAAAUAAAAGUUCAGAAGGUACGAAAA [Mat - Exclusion 1 - Eli mod - D9] | 0.0221 µM | 0.0403 µM |
| AGGAAACAUGAGGAUCACCCAUGUCAGGAUAUUCAAAAGAAAAGAAAAGAAAGAAGAAGAAGAAGGGACAAGAA [Wazner] | 0.0367 µM | 0.0445 µM |
| AGGAAGUGAGGAUAUGCAGCAUAUAGUGGACGCUAUAGCAUGUAGAAGGCACAUGAGGAUCACCCAUGUUUAAA [EX4 Malc#38] | 0.0308 µM | 0.0349 µM |
| AGGAGACAUGAGGAUCACCCAUGUUAGGAUAUGAACGAAAAUAAAUAAAAAUAAAAGUUCAGAAGGGACGAAAA [66%, Wbt, 8] | 0.0433 µM | 0.0447 µM |
| AGGAUGUCAGGAUAUGCGUAAAGAAUAAAACAAAUAACAACGCAGAAGGGACAUGAGGAUCACCCAUGUUAAGA [May 45] | 0.0423 µM | 0.086 µM |
| AGGAUGUCAGGAUAUGUGUAAAGAAUAAAACAAAUAACAACACAGAAGGGACAUGAGGAUCACCCAUGUUACCC [May 38] | 0.0171 µM | 0.0177 µM |
| AGGGAGUGAGGAUAUGCGAAAUAAAAAGAAGGAAAAAAAGAGCAGAAGGCACAUGAGGAUCACCCAUGUGAGAA [milkweed 11] | 0.0226 µM | 0.0157 µM |
| AGUAGGCGAGGAUAUACAUGAGGAUCACCCAUGUGAAAGAAAAAAGUGAGAAAGAAAAGUAGAAGGCGCUGACA [Ex 3 mod of Eli's mod of Lego's 73%] | 0.0604 µM | 0.204 µM |
| AGUAGUACAGGAUAUACAUGAGGAUCACCCAUGUGAAAAUAAAGUGGCGUACCACAAAGUAGAAGGGUACUACA [Mat - Exclusion 3 - JL mod - D35] | 0.0279 µM | 0.138 µM |
| AGUCAGAGAGGAUAUACAAGGGAAAAAAAAGUUAGAUCCCUACAUGAGGAUCACCCAUGUAGAAGGCUCUGACA [Ex2 Design 152: Sub-opt 16] | 0.108 µM | 0.0492 µM |
| AGUGAGUCAGGAUAUGCGUGAAGAAUAAAAGAAAUAACAACGCAGAAGGGACAUGAGGAUCACCCAUGUACACA [May 56] | 0.0235 µM | 0.0207 µM |
| AGUUGGCGAGGAUAUACAUGAGGAUCACCCAUGUGAAAUCGAGAAAAAAUAGGGAAAAGUAGAAGGCGCAGACA [Ruby 63] | 0.0206 µM | 0.0241 µM |
| AGUUGGCGAGGAUAUACAUGAGGAUCACCCAUGUGAGAGUAAAAAGUGAGAAAGAAAAGUAGAAGGCGCUAACA [JL Lego Mod 19] | 0.0488 µM | 0.352 µM |
| AGUUGGCGAGGAUAUACAUGAGGAUCACCCAUGUGAUAGAAAAAAGUGAGAAAGAAAAGUAGAAGGCGCUGACA [Mat - Exclusion 3 - Lego mod - D92] | 0.0699 µM | 0.254 µM |
